The data set addresses PARP-1 (commercial) (Homo sapiens, UniProt P09874 SEQ:1-1013). Description: EMSA; 1.5 ug purified PARP-1, no shift. To be noted: tags: Trevigen; label: 32P. As to the method: To evaluate whether purified PARP-1 is associated with NRBS, Applicants performed EMSA using commercial PARP-1 and radiolabeled Probe A (FIG. 18, lane 3). […] As PARP-1 was reported to bind to DNA using its N-terminal domain, the N-terminal DNA-binding domain (1-372 aa) from human PARP-1 were stably transfected into KAK-1 cells. Nuclear extract from multiple pooled positive clones from this transfection or a single positive clone from the same transfection experiment were incubated with labeled Probe A and subjected to EMSA (FIG. 18; lanes 6 & 10, respectively). The gel-shift bands produced were not appreciably different from those produced by nuclear extract from KAK-1 cells transfected with the empty vector (pCR3.1; lane 8) or those produced by parental KAK-1 nuclear extract (lane 2). Addition of cold Probe A, in each case, competed similarly against their respective matched lanes (lanes 3, 7, 9, & 11).
Background: In EMSA bound probe runs differently from free probe, usually more slowly.

Sequence of PARP-1 (commercial) (P09874 2-1014): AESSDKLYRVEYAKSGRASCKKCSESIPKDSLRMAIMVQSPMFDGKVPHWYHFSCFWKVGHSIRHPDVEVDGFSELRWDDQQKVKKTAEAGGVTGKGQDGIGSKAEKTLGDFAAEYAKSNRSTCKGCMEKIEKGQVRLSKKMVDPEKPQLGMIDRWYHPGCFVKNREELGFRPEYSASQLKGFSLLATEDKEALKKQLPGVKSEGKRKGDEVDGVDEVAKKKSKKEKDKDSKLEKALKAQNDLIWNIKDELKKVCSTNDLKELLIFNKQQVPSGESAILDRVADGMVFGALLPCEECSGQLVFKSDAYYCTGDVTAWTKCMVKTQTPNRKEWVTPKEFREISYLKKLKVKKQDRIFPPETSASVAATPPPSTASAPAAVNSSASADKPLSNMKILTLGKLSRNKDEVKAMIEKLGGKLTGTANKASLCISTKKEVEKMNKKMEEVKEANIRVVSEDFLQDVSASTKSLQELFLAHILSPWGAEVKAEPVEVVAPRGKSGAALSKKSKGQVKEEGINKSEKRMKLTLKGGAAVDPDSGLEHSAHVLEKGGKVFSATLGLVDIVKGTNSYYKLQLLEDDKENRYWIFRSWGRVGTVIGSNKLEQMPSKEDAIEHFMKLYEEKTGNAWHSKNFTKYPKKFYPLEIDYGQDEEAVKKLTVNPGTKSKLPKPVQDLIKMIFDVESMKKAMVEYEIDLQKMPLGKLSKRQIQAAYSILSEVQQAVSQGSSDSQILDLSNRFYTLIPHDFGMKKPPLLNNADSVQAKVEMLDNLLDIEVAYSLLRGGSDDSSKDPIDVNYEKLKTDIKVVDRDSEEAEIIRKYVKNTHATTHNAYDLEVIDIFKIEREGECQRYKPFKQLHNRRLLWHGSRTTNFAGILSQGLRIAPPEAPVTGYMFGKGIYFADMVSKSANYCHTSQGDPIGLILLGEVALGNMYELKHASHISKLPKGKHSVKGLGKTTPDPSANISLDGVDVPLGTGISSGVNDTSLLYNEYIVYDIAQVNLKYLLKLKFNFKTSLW

B1: Probe A (-684 to -565 hNIS) (dsDNA)
DNA 1: AAGCAGGCTGTGCAGGCTTGGATAGTGACATGCCCTTTTTGAGCCTCAATTTCCCCACCTGTCAACAGCAGACAGTGACAGCTGTGATCAGGGGATCACAGTGCATGGGGATGGGTGTGT
DNA 2: ACACACCCATCCCCATGCACTGTGATCCCCTGATCACAGCTGTCACTGTCTGCTGTTGACAGGTGGGGAAATTGAGGCTCAAAAAGGGCATGTCACTATCCAAGCCTGCACAGCCTGCTT
For the molecule B1, the binding result is reported as “no binding”.

For the origin of these results see US20090191584, “Transcriptional repression of sodium-iodide symporter in thyroid carcinoma” (UNIVERSITY OF KENTUCKY RESEARCH FOUNDATION, published 2009).
